Experimental data: patent US20090123474A1, “COMBINATION OF ANGIOPOIETIN-2 ANTAGONIST AND OF VEGF-A, KDR AND/OR FLTL ANTAGONIST FOR TREATING CANCER” (ASTRAZENECA AB, priority 2005, published 2009)
Positions count from the first letter of the chain named.

B1: Tie-2/Fc: soluble recombinant human Tie-2/Fc fusion protein (R&D Systems), positive control (protein)
chain: AMDLILINSLPLVSDAETSLTCIASGWRPHEPITIGRDFEALMNQHQDPLEVTQDVTREWAKKVVWKREKASKINGAYFCEGRVRGEAIRIRTMKMRQQASFLPATLTMTVDKGDNVNISFKKVLIKEEDAVIYKNGSFIHSVPRHEVPDILEVHLPHAQPQDAGVYSARYIGGNLFTSAFTRLIVRRCEAQKWGPECNHLCTACMNNGVCHEDTGECICPPGFMGRTCEKACELHTFGRTCKERCSGQEGCKSYVFCLPDPYGCSCATGWKGLQCNEACHPGFYGPDCKLRCSCNNGEMCDRFQGCLCSPGWQGLQCEREGIQRMTPKIVDLPDHIEVNSGKFNPICKASGWPLPTNEEMTLVKPDGTVLHPKDFNHTDHFSVAIFTIHRILPPDSGVWVCSVNTVAGMVEKPFNISVKVLPKPLNAPNVIDTGHNFAVINISSEPYFGDGPIKSKKLLYKPVNHYEAWQHIQVTNEIVTLNYLEPRTEYELCVQLVRRGEGGEGHPGPVRRFTTASIGLPPPRGLNLLPKSQTTLNLTWQPIFPSSEDDFYVEVERRSVQKSDQQNIKVPGNLTSVLLNNLHPREQYVVRARVNTKAQGEWSEDLTAWTLSDILPPQPENIKISNITHSSAVISWTILDGYSISSITIRYKVQGKNEDQHVDVKIKNATITQYQLKGLEPETAYQVDIFAENNIGSSNPAFSHELVTLPESQAPADLGGGK
modifications: left off: a dimerising Fc or GST
notes: soluble recombinant human Tie-2/Fc fusion protein (R&D Systems), positive control
B2: mAb 3.3.2: fully human anti-Angiopoietin-2 monoclonal antibody, variable regions SEQ ID NO: 1-4 (antibody, listed as Homo Sapiens, V domains shown)
VH: EVQLVESGGGLVQPGGSLRLSCAVSGFTFSSYWMSWVRQAPGKGLEWVANIKQDGSEKYYVDSVKGRFTISRDNAKNSLYLQMNSLRAEDTAVYYCARDQGIAVAGPFDYWGQGTLVTVSSA
VL: EIVMTQSPATLSVSPGERATLSCRASQTVSSDLAWYQQKPGQAPRLLIYGASIRATGIPARFSGSGSGTEFTLTISSLQSEDFAVYSCQQYYNWWTFGQGTKVEIKR
B3: mAb 5.28.1: fully human anti-Angiopoietin-2 monoclonal antibody, variable regions SEQ ID NO: 17-20 (antibody, listed as Homo sapiens, listed as Homo Sapiens, V domains shown)
VH: EVQLVESGGIVVQPGGSLRLSCAASGFTFDDYTMHWVRQTPGKGLEWVSLISWDGGSTYYADSVKGRFTISRDNSKNSLYLQMNSLRTEDTALYYCAKDIDIAVAGTGFDHWGQGTLVTVSSA
VL: EIVMTQSPATLSVSPGERATLSCRASQSVTSNLAWYQQKPGQAPRLLIYGALIRATGIPARFSGSGSGTEFTLTISSLQSEDFAVYYCQQYNNWPFTFGPGTKVDIKR
B4: mAb 3.31.2: fully human anti-Angiopoietin-2 monoclonal antibody, variable regions SEQ ID NO: 9-12 (antibody, listed as Homo sapiens, V domains shown)
VH: EVQLVESGGGLVQPGGSLRLSCAASGFTFSSYWMSWVRQAPGKGLEWVANIKQDGSDKYYVDSVKGRFTISRDNAKNSLYLRMNSLRAEDTAVFYCARDMGSGWFDYWGQGTLVTVSSA
VL: B2 VL with I2V, T28S, S30G, D32N, I53T, S87C, Y92N, N93H
B5: mAb 5.16.3: fully human anti-Angiopoietin-2 monoclonal antibody, variable regions SEQ ID NO: 13-16 (antibody, listed as Homo sapiens, listed as Homo Sapiens, V domains shown)
VH: QVQLVQSGAEVKKPGASVKVSCKASGYTFTGFYMYWVRQAPGQGLEWMGWINPNSSGTNHAQKFQGRVTMTRDTSISTAYMELSRLRSDDTAVYYCARDQDIATAGPFDYWGQGTLVTVSS
VL: B2 VL with T28S, D32N, Y49F, I53T, S87Y, Y92N, Q99R
B6: mAb 5.86.1: fully human anti-Angiopoietin-2 monoclonal antibody, variable regions SEQ ID NO: 25-28 (antibody, listed as Homo Sapiens, listed as Homo sapiens, V domains shown)
VH: QVQLVQSGAEVKKPGASVKVSCKASGYTFTGYHMYWVRQAPGQGLEWLGWINPNSGGTNYAQKFQGRVTMTRDTSISTAYMELSRLRSDDTAVYYCVRDQGIAAAGPFDYWCQGTLVTVSSA
VL: DIRMTQSPSSLSASVGDRVTITCRASQRISTYLNWYQQKPGKAPKFLIYAASSLQSGVPSRFSGSGSGTDFTLTISSLQPEDFATYYCQQSYTTPFTFGPGTKVDIKR
B7: mAb 5.88.3: fully human anti-Angiopoietin-2 monoclonal antibody, variable regions SEQ ID NO: 29-32 (antibody, listed as Homo Sapiens, V domains shown)
VH: EVQMVESGGGLVQPGGSLRLSCAASGFTLRSYWMSWVRQAPGKGLEWVANIKEDGSEKYHVDSVKGRFTISRDNAENSLFLQMSSLRAEDTAVYYCARDMEASAGLFDYWGQGTLVTVSSA
VL: B2 VL with T20I, T28S, V29I, D32N, I53T, S87Y, Y92N, N93Y

Biological target: T1, Angiopoietin-2 binding to Tie-2 (Homo sapiens, UniProt O15123)
T1 construct: purchased R&D Systems, Inc. BT623 (Angiopoietin-2, biotinylated); 313-TI-100 (Tie-2/Fc)
T1 sequence (O15123 19-496): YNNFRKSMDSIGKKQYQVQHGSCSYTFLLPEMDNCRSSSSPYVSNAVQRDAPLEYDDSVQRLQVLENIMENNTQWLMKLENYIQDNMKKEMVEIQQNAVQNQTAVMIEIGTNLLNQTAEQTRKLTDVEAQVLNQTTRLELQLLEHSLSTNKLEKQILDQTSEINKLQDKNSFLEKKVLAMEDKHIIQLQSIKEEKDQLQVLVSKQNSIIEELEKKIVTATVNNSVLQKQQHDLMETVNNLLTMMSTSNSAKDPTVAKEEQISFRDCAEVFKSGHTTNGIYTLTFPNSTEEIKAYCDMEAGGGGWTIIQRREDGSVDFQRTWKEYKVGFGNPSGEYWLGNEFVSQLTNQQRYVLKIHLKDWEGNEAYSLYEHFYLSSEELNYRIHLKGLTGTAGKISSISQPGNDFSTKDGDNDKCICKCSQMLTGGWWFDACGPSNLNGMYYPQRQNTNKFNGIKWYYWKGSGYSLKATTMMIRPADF
Experiment: Competitive binding assay (modified ELISA): inhibition of Angiopoietin-2 binding to Tie-2
Settings: for EC50: potency, competitive binding of Angiopoietin-2 to Tie-2, purified mAb; for Efficacy*: ratio of bound Angiopoietin-2 with mAb (30 μg/ml) versus without mAb
Protocol: As discussed above, Angiopoietin-2 exerts its biological effect by binding to the Tie-2 receptor. Monoclonal antibodies that inhibited Angiopoietin-2/Tie-2 binding were identified by a competitive binding assay using a modified ELISA. The mAb used were products of micro-purification from 50 ml of exhaustive supernatants of the hybridoma pools that were specific for Angiopoietin-2 (see above). 96-well Nunc Immplates™ were coated with 100 μl of recombinant human Tie-2/Fc fusion protein (R&D Systems, Inc., Cat. No. 313-TI-100) at 4 μg/ml by incubating overnight at 4° C. The plates were washed four times using Phosphate Buffer Saline (PBS) with a Skan™ Washer 300 station (SKATRON). The wells were blocked by 100 μl of ABX-blocking buffer (0.5% BSA, 0.1% Tween, 0.01% Thimerosal in PBS) for 1 hour.
Biotinylated recombinant human Angiopoietin-2 (R&D Systems, Inc. Cat. No. […] The plates were incubated at room temperature for two hours before the unbound molecules were washed off. Bound biotinylated Angiopoietin-2 was then detected using 100 μl/well of Streptavidin-HRP conjugate at 1:200 by incubating at room temperature for half an hour. After washing twice, the bound Streptavidin was detected by HRP substrate (R&D Systems, Cat. No. DY998). The plates were incubated for 30 minutes before 450 stop solution (100 μl/well, BioFX, Cat# BSTP-0100-01) was added to terminate the reaction. The light absorbance at 450 nm was determined by a Spectramax Plus reader.
Soluble recombinant Tie-2/Fc fusion protein at 10-fold molar excess to Angiopoietin-2 was used as a positive control. At this concentration, Tie-2/Fc inhibited binding of Angiopoietin-2 to immobilized Tie-2 by 80%.
To quantitate the inhibitory activities of the mAb on Angiopoietin-2 binding to Tie-2, the titer was determined for purified mAbs from the top candidates using a competitive binding assay. Each concentration of the mAb was tested in duplicate. The concentration-response relationship was found by curve fitting using Graphpad Prism™ graphic software (non-linear, Sigmoid curve). The maximal inhibition (efficacy) and IC50 (potency) were calculated by the software.

Molecule	inhibition of binding of Angiopoietin-2 to immobilized Tie-2 (positive control at 10-fold molar excess to Angiopoietin-2) [%]	EC50 [µg/mL]	Efficacy*
B1	80	–	–
B2	–	0.1684	0.3881
B3	–	2.698	0.3892
B4	–	0.04169	0.3751
B5	–	0.08532	0.3279
B6	–	0.1331	0.3844
B7	–	0.1557	0.4032
